Laboratory results reported in patent US20160311883A1 (Eli Lilly, published 2016).
Square brackets hold non-standard residues; d marks the D form. Ends that are not written are not given here. Aib = CC(C)(N)C(=O)O

Molecular target: human glucagon receptor (hGR) (human, UniProt P47871 26-477)
Test: cell-based or functional assay

human glucagon receptor (hGR), sequence (P47871 26-477): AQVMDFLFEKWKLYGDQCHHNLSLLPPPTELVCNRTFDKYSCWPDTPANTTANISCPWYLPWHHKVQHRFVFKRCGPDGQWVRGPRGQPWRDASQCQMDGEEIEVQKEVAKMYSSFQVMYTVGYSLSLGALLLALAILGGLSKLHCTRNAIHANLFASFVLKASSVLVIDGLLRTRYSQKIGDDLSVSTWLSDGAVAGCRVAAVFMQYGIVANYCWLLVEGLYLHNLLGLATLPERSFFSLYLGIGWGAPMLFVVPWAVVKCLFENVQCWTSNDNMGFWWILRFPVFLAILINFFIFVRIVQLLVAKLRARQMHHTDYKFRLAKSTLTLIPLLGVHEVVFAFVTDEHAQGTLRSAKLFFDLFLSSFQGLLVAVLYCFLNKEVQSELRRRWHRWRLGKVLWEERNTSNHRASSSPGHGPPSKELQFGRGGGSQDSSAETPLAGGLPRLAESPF

hGR stimulated cAMP functional assay, relative EC50: 0.0658 ηM
B1: compound of SEQ ID NO: 2 (peptide)
peptide: YSHGTFTSDVSKYLD[Aib]KKAAEFVAWLLEE-OH
modifications: N-terminus assumed
SMILES: CC(C)C[C@H](NC(=O)[C@H](Cc1c[nH]c2ccccc12)NC(=O)[C@H](C)NC(=O)[C@@H](NC(=O)[C@H](Cc1ccccc1)NC(=O)[C@H](CCC(=O)O)NC(=O)[C@H](C)NC(=O)[C@H](C)NC(=O)[C@H](CCCCN)NC(=O)[C@H](CCCCN)NC(=O)C(C)(C)NC(=O)[C@H](CC(=O)O)NC(=O)[C@H](CC(C)C)NC(=O)[C@H](Cc1ccc(O)cc1)NC(=O)[C@H](CCCCN)NC(=O)[C@H](CO)NC(=O)[C@@H](NC(=O)[C@H](CC(=O)O)NC(=O)[C@H](CO)NC(=O)[C@@H](NC(=O)[C@H](Cc1ccccc1)NC(=O)[C@@H](NC(=O)CNC(=O)[C@H](Cc1c[nH]cn1)NC(=O)[C@H](CO)NC(=O)[C@@H](N)Cc1ccc(O)cc1)[C@@H](C)O)[C@@H](C)O)C(C)C)C(C)C)C(=O)N[C@@H](CC(C)C)C(=O)N[C@@H](CCC(=O)O)C(=O)N[C@@H](CCC(=O)O)C(=O)O
